From the supplement of paper PMC9112550, “Optimization of the antimicrobial peptide Bac7 by deep mutational scanning” (BMC Biology, 2022)

The sequences below were run on Escherichia coli TOP10 (assay: shrunken log2 fold change of peptide-encoding DNA abundance (4.5 h post-induction vs induction); higher = less antimicrobial activity (less host growth inhibition)). Conditions: time post-induction: 4.5 h; library: site-saturation at positions 5, 18, 19, 20.
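Note: peptides expressed intracellularly from a pBAD plasmid library in pooled LB shake-flask culture, induced with 0.3% L-arabinose, DNA abundance read by NGS, three biological replicates, DESeq2 with apeglm shrinkage.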

In order of rising “shrunken log2 fold change” value:
1. RRIRIRPPRLPRPRPRPYCFPRP  -0.834
2. RRIRQRPPRLPRPRPRPKYTPRP  -0.776
3. RRIRIRPPRLPRPRPRPAINPRP  -0.606
4. RRIRNRPPRLPRPRPRPTYIPRP  -0.603
5. RRIRNRPPRLPRPRPRPSINPRP  -0.537
6. RRIRIRPPRLPRPRPRPSWFPRP  -0.529
7. RRIRYRPPRLPRPRPRPRYCPRP  -0.495
8. RRIRLRPPRLPRPRPRPMCMPRP  -0.451
9. RRIRVRPPRLPRPRPRPWFNPRP  -0.437
10. RRIRERPPRLPRPRPRPLWKPRP  -0.424
11. RRIRDRPPRLPRPRPRPSDHPRP  -0.422
12. RRIRGRPPRLPRPRPRPQYYPRP  -0.399
13. RRIRWRPPRLPRPRPRPWIVPRP  -0.337
14. RRIRCRPPRLPRPRPRPENNPRP  -0.303
15. RRIRCRPPRLPRPRPRPSTKPRP  -0.277
16. RRIRYRPPRLPRPRPRPEEYPRP  -0.255
17. RRIRIRPPRLPRPRPRPAYGPRP  -0.253
18. RRIRSRPPRLPRPRPRPQWFPRP  -0.241
19. RRIRIRPPRLPRPRPRPFYEPRP  -0.231
20. RRIRERPPRLPRPRPRPQHCPRP  -0.23
21. RRIRFRPPRLPRPRPRPMCPPRP  -0.176
22. RRIRIRPPRLPRPRPRPHFAPRP  -0.135
23. RRIRYRPPRLPRPRPRPWKLPRP  -0.121
24. RRIRERPPRLPRPRPRPMTFPRP  -0.081
25. RRIRDRPPRLPRPRPRPIVFPRP  -0.0706
26. RRIRPRPPRLPRPRPRPKVFPRP  -0.0552
27. RRIRQRPPRLPRPRPRPTDSPRP  -0.0401
28. RRIRIRPPRLPRPRPRPGLFPRP  -0.0275
29. RRIRQRPPRLPRPRPRPQGRPRP  -0.0215
30. RRIRDRPPRLPRPRPRPIIDPRP  -0.02
31. RRIRIRPPRLPRPRPRPPIIPRP  -0.0124
32. RRIRLRPPRLPRPRPRPNRGPRP  -0.00212
33. RRIRERPPRLPRPRPRPWRLPRP  -0.00145
34. RRIRQRPPRLPRPRPRPDQVPRP  -0.00133
35. RRIRKRPPRLPRPRPRPYWPPRP  -0.000778
36. RRIRGRPPRLPRPRPRPMETPRP  0.00487
37. RRIRMRPPRLPRPRPRPDMRPRP  0.0245
38. RRIRNRPPRLPRPRPRPNPAPRP  0.028
39. RRIRDRPPRLPRPRPRPFPCPRP  0.0367
40. RRIRMRPPRLPRPRPRPWICPRP  0.0396
41. RRIRMRPPRLPRPRPRPIWGPRP  0.0405
42. RRIRDRPPRLPRPRPRPFNWPRP  0.0464
43. RRIRDRPPRLPRPRPRPVWTPRP  0.0494
44. RRIRFRPPRLPRPRPRPDWAPRP  0.0526
45. RRIRERPPRLPRPRPRPKTFPRP  0.0567
46. RRIRQRPPRLPRPRPRPDECPRP  0.0568
47. RRIRFRPPRLPRPRPRPMRIPRP  0.068
48. RRIRHRPPRLPRPRPRPRWTPRP  0.0902
49. RRIRNRPPRLPRPRPRPEIWPRP  0.0992
50. RRIRVRPPRLPRPRPRPEACPRP  0.11
51. RRIRFRPPRLPRPRPRPKRMPRP  0.133
52. RRIRKRPPRLPRPRPRPNPRPRP  0.228
53. RRIRWRPPRLPRPRPRPPHYPRP  0.24
54. RRIRKRPPRLPRPRPRPCPQPRP  0.242
55. RRIRDRPPRLPRPRPRPYAEPRP  0.247
56. RRIRWRPPRLPRPRPRPDWVPRP  0.253
57. RRIRMRPPRLPRPRPRPRSLPRP  0.27
58. RRIRRRPPRLPRPRPRPIHKPRP  0.27
59. RRIRHRPPRLPRPRPRPWRPPRP  0.29
60. RRIRRRPPRLPRPRPRPVSVPRP  0.308
61. RRIRLRPPRLPRPRPRPPCPPRP  0.316
62. RRIRKRPPRLPRPRPRPRLVPRP  0.338
63. RRIRSRPPRLPRPRPRPRPNPRP  0.345
64. RRIRKRPPRLPRPRPRPLQPPRP  0.349
65. RRIRGRPPRLPRPRPRPDTSPRP  0.383
66. RRIRERPPRLPRPRPRPGDGPRP  0.389
67. RRIRWRPPRLPRPRPRPMGAPRP  0.501
68. RRIRDRPPRLPRPRPRPAGYPRP  0.528
69. RRIRGRPPRLPRPRPRPLCKPRP  0.529
70. RRIRHRPPRLPRPRPRPPRFPRP  0.578
71. RRIRARPPRLPRPRPRPPNQPRP  0.691
72. RRIRVRPPRLPRPRPRPKPTPRP  0.707
73. RRIRMRPPRLPRPRPRPNAWPRP  0.774
74. RRIRKRPPRLPRPRPRPAIAPRP  0.802
75. RRIRKRPPRLPRPRPRPDDTPRP  2.31
